The text below walks through data of PMC4883780.

The target in assay [1] is human vascular endothelial growth factor 165 (hVEGF), E. coli-derived, after tag cleavage (human). The assay is described as follows: SEC; SEC-HPLC, Protein-pak 300SW SEC 7.5 x 300 mm column, 1X PBS pH 7.4, room temperature, 1 mL/min, detection at 280 nm; peaks checked on non-reducing SDS-PAGE. (In general: In gel filtration, larger molecules generally elute earlier.)
For assay [2] the target is unchanged. The assay is described as follows: non-reducing SDS-PAGE; purified hVEGF in sample buffer with SDS, without DTT (non-reducing) against with 100 mM DTT (reducing), tricine SDS-PAGE, Coomassie stain; shows disulfide-linked forms.

In the case of “human vascular endothelial growth factor 165 (hVEGF), E. coli-derived, after tag cleavage (ligand)”, the stoichiometry N in assay [1] and in assay [2] was 2 throughout.

The stoichiometry N is the number of molecules, sites or subunits per partner or assembly.
